# Assay results: US20230295313A1
# Substitutions are numbered along the chain they refer to.
# B1: murine mAb048 (antibody, V domains shown)
# VH: QVQLQQPGADLVKPGASVKLSCKAYGYTFFSYWMHWVRQRPGQGLEWIGMIHPNSGTTNNNEKFKSKATLTVDKSFSTAYMQLSSLTSEDSAVYYCARGYSNYDFDYWGQGTILTVSS
# VL: DIKMTQFPSSMYASLGERVTITCKASQDINTYLIWIQQKPGKSPKTLIYRANRLADGVPSRFSGSGSGQDSSLTISSLEHEDMGIYYCLQYDEFPYTFGGGTKLEIK
# B2: murine mAb117 (antibody, V domains shown)
# VH: QAYLQQSGAELVRPGASVKMSCKASGYTFTSYNMHWVKQSPRQGLEWVGVFYLGNGDTSYNEKFKGKATLTVDKSSSTAYMQLSSLTSEDSAVYFCARPGGYANWYFDVWGTGTTVTVSS
# VL: DIVMTQSQKFMSTSVGDWVSVTCKASQNVGTEVSWYQQKPGQSPNTLIYSASYRHSGVPDRFTGSGSGTEFTLTITNVQSEDLADYFCQQYNSFPLTFGAGTKLDLK
# B3: murine mAb067 (antibody, V domains shown)
# VH: QVKLHQSGAELAKPGASVKMSCKASGYTFNSYWIHWVKQRPGQGLEWIGYNNPTSGYSEYNQKFTDKATLSADKSSSTAYMQLSSLTSEDSAVYYCVREYGDLFAYWGQGTLVTVSA
# VL: NIVMTQSPKSMSMSVGERVTLSCKASENVGYSVSWFQQKPDQSPKLLIYGASNRYTGVPDRFTGSGSATDFTLTISTVQAEDLADYHCGQIYIYPYTFGGGTKLEIK
# B4: mAb063 (antibody, V domains shown)
# VH: EVQLQQSGPELVKPGASVKISCKASGYTFTDYYMNWVKQSHGKSLEWIGHINPNSGSTTYTEKFKDKATLTVDKSSSTAYMELRSLTSDDSAVYYCVRRIGKNWHCDVWGTGTTVTVSS
# VL: DIVLTQSPASLAVSLGQRATISCRASESVNFHGTHLMHWYQQKPGQAPKLLIYAASNLDSGVPARFSGSGSETDFTLNIHPVEEEDAATYFCQQSIEDPFTFGSGTYLEIK
# B5: murine mAb001 (antibody, V domains shown)
# VH: QVQLQQPGAELVRPGSSVKLSCKASGYTFTSYWMDWVKQRPGQGLEWIGNIYPSDSKTHYNQKFKDKATLTVDKSSSTAYMQLSSLTSEDSAVYYCARDYYGSIGMDYWGQGTSVTVSS
# VL: DIQMTQSPSSLSASLGERVSLTCRASQEISGYLSWLQQKPDGTIKRLIYAASTLDSGVPKRFSGSRSGSDYSLTISSLESEDFADYYCLQYASYPWTFGGGTKLEIK
# B6: murine mAb016 (antibody, V domains shown)
# VH: B5 VH with K57A, V72I, Y108S
# VL: B5 VL with G31D, Y94F
# Molecular target: biotin-labeled human IL1RAP (human) (UniProt Q9NPH3)
# Sequence (Q9NPH3 21-367 limits assumed): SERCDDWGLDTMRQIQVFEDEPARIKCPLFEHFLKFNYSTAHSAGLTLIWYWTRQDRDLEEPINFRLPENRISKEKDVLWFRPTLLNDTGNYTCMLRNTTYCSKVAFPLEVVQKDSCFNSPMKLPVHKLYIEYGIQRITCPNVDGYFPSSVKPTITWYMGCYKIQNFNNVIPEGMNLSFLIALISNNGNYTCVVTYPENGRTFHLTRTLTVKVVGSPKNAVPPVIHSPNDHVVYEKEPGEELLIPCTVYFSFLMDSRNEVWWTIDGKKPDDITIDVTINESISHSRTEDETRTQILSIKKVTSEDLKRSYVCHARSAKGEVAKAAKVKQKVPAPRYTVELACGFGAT
# Experiment: competition ELISA; competitor: capture mAb001 coated; biotin-hIL1RAP
row,% inhibition [%],Binder
1,95,B1
2,93,B2
3,94,B3
4,94,B4
5,93,B5
6,95,B6

# Molecular target: biotin-labeled human IL1RAP (human) (UniProt Q9NPH3)
# Experiment: competition ELISA; competitor: capture mAb067 coated; biotin-hIL1RAP
row,% inhibition [%],Binder
1,90,B1
2,86,B2
3,87,B3
4,87,B4
5,76,B5
6,76,B6

# Molecular target: biotin-labeled human IL1RAP (human) (UniProt Q9NPH3)
# Experiment: competition ELISA; competitor: capture mAb016 coated; biotin-hIL1RAP
row,% inhibition [%],Binder
1,98,B1
2,98,B2
3,97,B3
4,97,B4
5,90,B5
6,94,B6

# Molecular target: biotin-labeled human IL1RAP (human) (UniProt Q9NPH3)
# Experiment: competition ELISA; competitor: capture mAb063 coated; biotin-hIL1RAP
row,% inhibition [%],Binder
1,86,B1
2,87,B2
3,72,B3
4,96,B4
5,75,B5
6,80,B6

# Molecular target: biotin-labeled human IL1RAP (human) (UniProt Q9NPH3)
# Experiment: competition ELISA; competitor: capture mAb117 coated; biotin-hIL1RAP
row,% inhibition [%],Binder
1,94,B1
2,95,B2
3,91,B3
4,92,B4
5,82,B5
6,89,B6

# Molecular target: biotin-labeled human IL1RAP (human) (UniProt Q9NPH3)
# Experiment: competition ELISA; competitor: capture mAb048 coated; biotin-hIL1RAP
row,% inhibition [%],Binder
1,84,B1
2,83,B2
3,83,B3
4,82,B4
5,68,B5
6,78,B6
